The target of this data set is T1, SegC1-155 (UniProt Q981B4 1-155, del156-165).
T1 sequence: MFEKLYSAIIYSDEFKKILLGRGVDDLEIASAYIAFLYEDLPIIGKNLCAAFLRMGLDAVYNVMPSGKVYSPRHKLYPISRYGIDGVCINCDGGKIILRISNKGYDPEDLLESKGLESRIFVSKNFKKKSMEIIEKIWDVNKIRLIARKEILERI
Put plainly: fluorescence polarization; FP: 20 mM Tris-HCl pH 7.5, 100 mM NaCl, 2 mM MgCl2, 5 nM Cy3-DNA, room temperature; EMSA: same buffer, 10 nM Cy3-DNA, 37 C 30 min, 4-12% TBE gel. Conditions: protein: recombinant; tags: C-terminal His6; label: 5' Cy3; 20 bp paired with 3' overhang 1 nt at each end (from printed strands). On the technique in general: Polarisation of emitted light reports the rotation of a fluorescent probe.

B1: 21-bp site 1 (S1) dsDNA (dsDNA)
DNA 1: ACGTAGAAGAGTCTAGACTGA
DNA 2: CAGTCTAGACTCTTCTACGTA
On to B1, for which the binding result is on record as “no binding”.

Values taken from article PMC11381335, “Unraveling the structure and function of a novel SegC protein interacting with the SegAB chromosome segregation complex in Archaea” (Nucleic Acids Research, 2024).
